Measurements as given in patent US20160145332A1 (MONASH UNIVERSITY, published 2016).

How the values were obtained:
human IL-21 [1] = target: T1, human IL-21 (human, UniProt Q9HBE4 25-162, limits assumed); assay: cell-based or functional assay
[2] = target: T2, Peptide 4 of hIL-21 (P4, 23aa) (human); assay: ELISA, biotinylated antibody on coated peptide
T2 peptide: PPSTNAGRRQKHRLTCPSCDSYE
Description: (§1) To detect epitopes of 2P2 and 3A3, peptides consisting of different regions of hIL-21 were synthesized commercially and coated on an ELISA plate, followed by blocking of non-specific binding sites with 3% BSA in PBS. Biotinylated 2P2 or 3A3 were then added to the wells and developed with Streptavidin-HRP and TMB substrates.
(§2) An ELISA assay was used to examine binding between antibodies 2P2 and 3A3 and a Streptavidin-HRP secondary only control to each of the peptides P1 to P5, hIL-21 and OVA peptide. […] Thus, the epitope recognized by antibody 2P2 comprised a minimal sequence of 9 mer to 15 mer, with the core sequence being […] (SEQ ID NO 23). Binding was stronger with the sequence CPSCD was also present and strongest binding was observed when the sequences IKKLK, CPSCD and […] were present.

[3] = target: T3, Peptide 5 of hIL-21 (P5, 15aa) (human); assay: ELISA, biotinylated antibody on coated peptide
T3 peptide: PPSTNAGRRQKHRLT
Description: as §1, §2

human IL-21 [4] = target: T1, human IL-21; assay: SPR (Bio-Rad XPR36), average of the five wells of Table 6; mean of the five single KDs, SD 0.74x10^-9
Description: (§3) Surface Plasma Resonance binding kinetics assay were performed on a Bio-rad XPR36 system by the direct amine coupling method. Briefly, a flow of mixture of EDC [N-ethyl-N′-(3-[…]-propyl)carbodiimide] and NHS (N-hydroxysuccinimide) was used to activate the cell surface of a GLC sensor chip before 25 μg/ml anti-IL-21 mAb was flowed through, then a shot flow of ethanolamine was used to block the remaining active sites on the cell surface. Afterwards, serial diluted solutions of IL-21 from 0 to 40 nM were flown over the cell surface to bind to the immobilized anti-IL-21 mAb molecules. Binding kinetics were performed at 25° C. with a flow rate of 30 μL/min, association time of 3 min and dissociation time of 6 min. The buffer consisted of Hepes, NaCl, tween20, and 1 mg/mL BSA at pH 7.4. The flow cell regeneration buffer between cycles was 15 mM phosphoric acid. Double references were used to process the sensorgrams. The binding curves were globally fit to the 1:1 Langmuir binding model.

human IL-21 [5] = target: T1, human IL-21; assay: SPR (Bio-Rad XPR36), stated average of n=5 measurements; stated final affinity, average of n=5 (table 6)
Description: as §3

P1 = target: T4, P1; assay: peptide ELISA: peptide coated on the plate, biotinylated antibody, Streptavidin-HRP, TMB, A450
T4 construct: also called Peptide 1 (P1, 30aa); peptide 1 of hIL-21

P2 = target: T5, P2; assay: as above
T5 construct: also called Peptide 2 (P2, 27aa); peptide 2 of hIL-21
T5 peptide: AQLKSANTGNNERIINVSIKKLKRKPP

[6] = target: T6, Peptide 3 of hIL-21 (P3, 30aa) (human); assay: ELISA: Peptide 3 coated on the plate, biotinylated 2P2 alone or spiked with Peptide 3, Streptavidin-HRP, TMB, A450
T6 peptide: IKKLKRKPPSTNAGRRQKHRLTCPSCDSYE

mIL21 = mIL21 (Mus musculus, UniProt Q9ES17); assay: ELISA: mouse IL-21 coated on the plate, biotinylated 2P2 alone or spiked with Peptide 3, Streptavidin-HRP, TMB, A450

T1 sequence (Q9HBE4 25-162 limits assumed): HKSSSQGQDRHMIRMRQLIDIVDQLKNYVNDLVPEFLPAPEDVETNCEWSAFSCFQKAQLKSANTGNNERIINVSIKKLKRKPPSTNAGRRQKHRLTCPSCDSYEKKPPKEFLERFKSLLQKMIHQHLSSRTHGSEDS
T4 sequence (peptide, as listed by the source): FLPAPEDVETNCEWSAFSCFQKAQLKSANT

bioactivity of human IL-21 on Ba/F3-hIL-21R cell proliferation at 10 µg/ml 2P2 (human IL-21 [1]): > 10 fold
hIL-21 bioactivity on human CD8 T cell activation (granzyme B and perforin) (human IL-21 [1]): > 10 fold
hIL-21 mediated human B cell proliferation (CFSE dilution); 5 ng/ml hIL-21 plus 1 µg/ml 2P2 compared with 100 ng/ml hIL-21 (human IL-21 [1]): ~20 fold
binding result [2]: binds
binding result [3]: binds
Kd (human IL-21 [4]): 3.33 nM
Kd (human IL-21 [5]): 3 nM
binding result (P1): no binding
binding result (P2): no binding
binding result [6]: binds
binding result (mIL21): no binding
B1: monoclonal antibody 2P2 (antibody, V domains shown)
VH: EVQLQQSGADLVRSGASVKLSCTASGFNIKDYYIHWVKQRPEQGLELIGWIDPESGDTEYAPKFQVKATMTADTSSNTAYLQLSSLTSEDTAVYYCNDGSGYWGQGTTLTVSS
VL: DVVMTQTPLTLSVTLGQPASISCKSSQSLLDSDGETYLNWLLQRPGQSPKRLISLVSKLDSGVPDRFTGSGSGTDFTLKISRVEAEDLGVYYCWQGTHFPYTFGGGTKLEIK
notes: It was biotinylated in the ELISA assays and unlabelled, amine-coupled to the chip, in SPR; also called mAb 2P2; mAB 2P2
